Experimental findings from US20220017630A1 (JIANGSU SIMCERE PHARMACEUTICAL, published 2022) are described below.

Numbering of substitutions follows the chain as printed.

In experiment [1] the target is T1, human TNFR2 on the cell surface (CHO-TNFR2 cells; human Treg cells) (human, UniProt P20333 23-461).
T1 construct: whole, on cells; The assay field of each row says which cells; also called TNFR2-CHO cell; TNFR2 on Treg cells
T1 sequence (looked up): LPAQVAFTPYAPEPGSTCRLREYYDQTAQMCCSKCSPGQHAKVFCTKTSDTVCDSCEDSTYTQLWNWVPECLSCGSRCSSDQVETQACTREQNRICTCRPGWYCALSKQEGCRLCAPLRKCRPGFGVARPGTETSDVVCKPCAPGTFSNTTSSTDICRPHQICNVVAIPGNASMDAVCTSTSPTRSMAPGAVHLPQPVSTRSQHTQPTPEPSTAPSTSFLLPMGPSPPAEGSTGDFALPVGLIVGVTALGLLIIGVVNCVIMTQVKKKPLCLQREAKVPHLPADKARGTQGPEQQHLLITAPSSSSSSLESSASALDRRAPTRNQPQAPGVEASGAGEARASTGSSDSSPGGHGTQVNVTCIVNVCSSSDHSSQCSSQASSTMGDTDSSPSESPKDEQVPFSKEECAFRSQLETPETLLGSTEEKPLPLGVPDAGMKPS
Description: flow cytometry competition on CHO-TNFR2 cells: antibody first, then human TNFα-biotin, PE-streptavidin; MFI of bound TNFα-biotin [panel #309, table under the plot]. As for the experimental part: (§1) CHO cells that stably overexpressed human TNFR2 were used for experiments. The cells were resuscitated and passaged until in good state, and the expression level of human TNFR2 on the cells was assessed by FACS. Compared to the isotype control, the assay could be carried out when the fold change of mean fluorescence intensity (MFI) was more than 100 times.
(§2) CHO-TNFR2 cells were digested, washed twice with DPBS and stained with Live/Dead (L/D) at room temperature for 20 min, and then seeded at 1×10⁵ cells/50 μl/well. […] The diluted antibodies were added 50 μl/well into wells pre-seeded with cells, and gently blown and mixed to make the final concentrations of the antibodies to 20, 6.67, 2.22, 0.74, 0.247, 0.08, 0.027 and 0 nM, respectively followed by incubation at 4° C. for 30 min. […] After washing twice with the staining buffer, 100 μl/well of PE-streptavidin was added and incubated at 4° C. for 30 min. After additional washing with the staining buffer twice, 150 μl resuspended cells was analyzed using an flow cytometry. Taking the logarithmic value of the antibody concentrations as abscissa and the corresponding MFI value as ordinate, the inhibition curve of the antibody was drawn, and the IC50 value was calculated by four parameters fitting.
(In general: In flow cytometry, cells or beads pass a laser one at a time.)

Experiment [2] concerns the target T1, human TNFR2 on the cell surface …. Description: flow cytometry competition on CHO-TNFR2 cells: antibody first, then human TNFα-biotin, PE-streptavidin; MFI of bound TNFα-biotin [panel #352, table under the plot]. As for the experimental part: as §1, §2
The target is the same in experiment [3]. Description: flow cytometry competition on CHO-TNFR2 cells: antibody first, then human TNFα-biotin, PE-streptavidin; MFI of bound TNFα-biotin [label on D00006), panel #125, table under the plot]. On the procedure: as §1, §2
Experiment [4] has the same target. Put plainly: flow cytometry competition on CHO-TNFR2 cells: antibody first, then human TNFα-biotin, PE-streptavidin; MFI of bound TNFα-biotin [label on D00006), panel #001, table under the plot]. On the procedure: as §1, §2

B1: TNFR2 antibody #309 (antibody, V domains shown)
VH: EVQLQESGAELVKPGASVKLSCKASGYTFTSYWIHWVKLRPGQGFEWIGEINPNNGGTDYNEKFKRKATLTVDKSSSTAYMELSSLTSEDSAIYYCTIDSMITTTWFAYWGQGTTVTVSS
VL: EIVMTQSQKLMSTVVGDRVSVTCKASQNVGTNVAWFQQKPGQSPKALINSASYRYSGVPDRFTGSGSGTDFTLTISSVQSEDLAEYFCQQYNSYPFTFGSGTKLEIK
As usually defined, the IC50 is the concentration that gives 50% inhibition. High values mean a need for much substance, low ones inhibition by little substance. As for B1, the IC50 in experiment [1] was 0.116 µg/mL.

B2: TNFR2 antibody #352 (antibody, V domains shown)
VH: EVQLQESGPGLVAPSQSLSITCTVSGFSLTSYGVHWVRQPPGKGLEWLVVIWSDGGTTYNSALKSRLSISKDNSKSQVFLKMNSLQTDDTAMYYCARHDDDGYYAMDYWGQGTTVTVSS
VL: DIVLTQSPSLMSASPGEKVTMTCSASSSVGYMYWYQQKPRSSPKPWIYLTSNLASGVPARFSGSGSGTSYSLTISSMEVEDAATYYCQQWSSDPFTFGSGTKLEIK
The molecule B2 yielded an IC50 in experiment [2] of 0.056 µg/mL.

B3: TNFR2 antibody #125 (antibody, V domains shown)
VH: EVQLQESGGGLVQPGGSLNLSCAASGFAFSIYDLSWVRQTPEKRLEWVAYINNGGISTYYSDTVKGRFTISRDNAKNTLYLQMSSLKSEDTAMYYCVRGPFYGSANYFDYWGQGTTVTVSS
VL: DIQMTQSPASLSLSVGETVTITCRASENIYSNLAWYQQKQGKSPQLLVYDATKLAEGVPSRFSGSESGTQYSLKINSLQSEDFGTYYCQHFWVTPWTFGGGTKLEIK
In the case of B3, the IC50 in experiment [3] turned out to be 0.109 µg/mL.

B4: TNFR2 antibody #001 (antibody, V domains shown)
VH: B3 VH with I31T
VL: B3 VL with D1E, Q3V, A25T, N28S, A34P
notes: also called antibody #1
Regarding B4, the IC50 in experiment [4] is 0.14 µg/mL.
